According to the supplement of paper PMC10567573:

B1: CDC25B (parent)
chain: FVDILESDLKDDDAVPPGMESLIS

Variants of: B1
Test: protein stability index of a GFP-peptide fusion (GPS, HEK-293T) (PSI 1-6); higher = more stable
Details: c terminus: a fixed tail appended
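Also: lentivirally expressed fusions sorted by FACS into six bins by GFP to DsRed ratio, PSI derived from sequencing read proportions per bin multiplied by bin number.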

Variant	protein stability index
D3V	1.86
D3E	3.46
D3G	2.83
D3C	2.4
D3N	2.81
D3M	1.92
D3Y	2.15
D3R	2.12
D3F	1.6
D3I	2.75
D3P	2.93
D3S	2.96
D3T	2.39
D3W	1.91
D3K	2.65
D3A	2.65
F1R	4.96
F1H	5.4
F1C	4.49
F1S	5.39
F1P	5.46
F1E	5.37
F1T	5.31
F1L	4.81

Variant	protein stability index
F1W	2.5
F1D	5.24
F1Q	5.4
F1M	4.59
F1V	4.08
F1N	5.3
A14E	3.05
A14Y	2.49
A14M	3
A14C	2.86
A14N	3.29
A14H	2.75
A14Q	2.33
A14P	3.15
A14F	2.49
A14I	2.65
A14K	2.96
A14G	2.53
A14S	3.24
A14L	2.8
D11C	2.25
D11I	2.6
D11G	2.78
D11V	2.61

Variant	protein stability index
D11F	2.52
D11N	2.5
D11Y	2.71
D11T	3.28
D11P	2.68
D11M	2.6
D11Q	2.51
D11H	2.37
D11R	2.25
D11K	3.02
M19S	3.45
M19I	2.85
M19E	3.37
M19C	2.91
M19F	2.83
M19R	2.55
M19A	3.22
M19D	3.48
M19V	3.08
M19W	2.67
M19H	2.89
M19T	3.09
M19K	3.02
M19P	3.54

Variant	protein stability index
D8V	2.7
D8S	2.38
D8L	2.9
D8E	2.89
D8H	2.79
D8Q	2.67
D8G	2.93
D8W	2.54
D8A	2.58
D8M	2.55
D8F	2.32
D8I	2.56
D8R	2.7
D8T	2.66
S7I	2.3
S7N	2.57
S7F	1.9
S7Q	3.19
S7T	2.85
S7C	3.23
S7R	2.47
S7K	2.6
S7V	2.17
S7P	2.83

Variant	protein stability index
S7W	1.36
S7H	2.6
S7A	2.79
S7G	3.22
S21H	2.67
S21T	2.76
S21I	3.24
S21R	2.86
S21L	3.43
S21A	2.84
S21C	2.93
S21F	2.5
S21M	2.96
S21W	2.22
S21N	2.81
S21D	3.15
S21P	3.02
S21G	2.61
P16R	2.59
P16M	2.6
P16F	2.06
P16N	3.23
P16H	3.14
P16Q	2.79

Variant	protein stability index
P16K	3
P16D	3.62
P16L	2.76
P16Y	2.82
P16S	2.88
P16W	2.52
P16A	2.98
P16C	2.68
P16I	2.44
P16E	3.04
P16T	2.98
K10V	3
K10Q	2.97
K10F	2.63
K10E	3.33
K10C	3.11
K10L	2.45
K10I	2.72
K10Y	2.59
K10G	3.5
K10W	2.43
E6T	2.58
E6R	2.2
E6I	1.93

Variant	protein stability index
E6S	2.54
E6F	2.68
E6C	2.13
E6N	3.13
E6W	2.32
E6P	2.37
E6D	2.88
E6V	2.19
E6H	2.55
E6A	2.04
D13V	2.39
D13K	2.96
D13T	2.75
D13I	2.08
D13P	2.83
D13Q	2.71
D13G	2.61
D13C	2.56
D13A	3.04
D13W	2.62
S24V	2.41
S24P	2.57
S24G	3.02
